Assay results from publication PMC13260207.

Columns and labels:
[1] = molecular target: recombinant PI4KIIα (lab-made) (human) (UniProt Q9BTU6); experiment: MST; fluorescently labelled PI4KIIα (5 nM) mixed with 1 μM PI (micelles) before the ligand protein, unlabelled ligand titrated; Tris-based MST buffer; Monolith NT.115 pico
[2] = molecular target: recombinant PI4KIIα (lab-made) (human) (UniProt Q9BTU6); experiment: MST; fluorescently labelled PI4KIIα (5 nM) constant, unlabelled ligand protein titrated; Tris-based MST buffer; Monolith NT.115 pico; no PI

Chain of UniProt Q9BTU6 (Q9BTU6 whole entry): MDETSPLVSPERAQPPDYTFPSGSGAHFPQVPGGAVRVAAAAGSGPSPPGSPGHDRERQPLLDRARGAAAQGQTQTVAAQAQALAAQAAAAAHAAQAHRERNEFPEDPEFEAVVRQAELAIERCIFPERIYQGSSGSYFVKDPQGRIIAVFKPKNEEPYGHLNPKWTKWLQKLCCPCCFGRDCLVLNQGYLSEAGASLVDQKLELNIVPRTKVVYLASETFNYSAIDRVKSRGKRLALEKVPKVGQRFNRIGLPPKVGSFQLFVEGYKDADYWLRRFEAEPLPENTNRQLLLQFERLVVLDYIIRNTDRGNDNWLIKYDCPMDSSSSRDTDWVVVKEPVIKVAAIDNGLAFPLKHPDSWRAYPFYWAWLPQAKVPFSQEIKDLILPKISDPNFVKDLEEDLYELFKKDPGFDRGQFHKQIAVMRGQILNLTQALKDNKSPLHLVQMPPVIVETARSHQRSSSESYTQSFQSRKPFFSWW

Kd [1]	Kd [2]	Substance
0.113 µM	0.263 µM	recombinant PITPβ (#LS-C794864, LSBio) (from UniProt P48739 1-271) (natural protein)
–	0.189 µM	recombinant PITPα (#ab101666, Abcam) (from UniProt Q00169 1-270) (natural protein)
